Laboratory results: the supplement of paper PMC9112550, “Optimization of the antimicrobial peptide Bac7 by deep mutational scanning” (BMC Biology, 2022)

Tested on: Escherichia coli TOP10
Assay: shrunken log2 fold change of peptide-encoding DNA abundance (4.5 h post-induction vs induction); higher = less antimicrobial activity (less host growth inhibition)
Conditions: time post-induction: 4.5 h; library: site-saturation at positions 5, 18, 19, 20
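Also: peptides expressed intracellularly from a pBAD plasmid library in pooled LB shake-flask culture, induced with 0.3% L-arabinose, DNA abundance read by NGS, three biological replicates, DESeq2 with apeglm shrinkage.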

Sequence	shrunken log2 fold change
RRIRRRPPRLPRPRPRPKPMPRP	0.687
RRIRERPPRLPRPRPRPVPKPRP	0.358
RRIRKRPPRLPRPRPRPDWHPRP	0.0739
RRIRNRPPRLPRPRPRPNWDPRP	-0.163
RRIRCRPPRLPRPRPRPKTPPRP	0.827
RRIRVRPPRLPRPRPRPCYTPRP	-0.498
RRIRGRPPRLPRPRPRPLSTPRP	1.13
RRIRCRPPRLPRPRPRPQGCPRP	-0.0977
RRIRKRPPRLPRPRPRPARPPRP	0.575
RRIRERPPRLPRPRPRPQSCPRP	0.00299
RRIRDRPPRLPRPRPRPTSLPRP	-0.0226
RRIRHRPPRLPRPRPRPHLGPRP	0.0478
RRIRMRPPRLPRPRPRPWMPPRP	0.0554
RRIRYRPPRLPRPRPRPVMPPRP	0.047
RRIRGRPPRLPRPRPRPESLPRP	0.595
RRIRYRPPRLPRPRPRPDPCPRP	-0.0185
RRIRYRPPRLPRPRPRPQAKPRP	-0.0419
RRIRRRPPRLPRPRPRPPMTPRP	0.43
RRIRTRPPRLPRPRPRPWTDPRP	-0.17
RRIRDRPPRLPRPRPRPWLPPRP	0.0708
RRIRNRPPRLPRPRPRPQSNPRP	-0.428
RRIRERPPRLPRPRPRPLWCPRP	-0.0233
RRIRNRPPRLPRPRPRPNDKPRP	-0.549
RRIRGRPPRLPRPRPRPMKRPRP	0.343
RRIRNRPPRLPRPRPRPTPLPRP	0.268

Sequence	shrunken log2 fold change
RRIRVRPPRLPRPRPRPQEFPRP	-0.06
RRIRCRPPRLPRPRPRPGACPRP	0.257
RRIRCRPPRLPRPRPRPNHNPRP	-0.975
RRIRNRPPRLPRPRPRPPHPPRP	0.292
RRIRCRPPRLPRPRPRPCQNPRP	-0.0888
RRIRWRPPRLPRPRPRPIMNPRP	-0.473
RRIRPRPPRLPRPRPRPIHAPRP	-0.0974
RRIRSRPPRLPRPRPRPGKPPRP	0.0657
RRIRCRPPRLPRPRPRPCTKPRP	-0.507
RRIRGRPPRLPRPRPRPRFRPRP	0.3
RRIRNRPPRLPRPRPRPLFAPRP	0.0932
RRIRCRPPRLPRPRPRPCEGPRP	0.0324
RRIRMRPPRLPRPRPRPQIWPRP	0.144
RRIRPRPPRLPRPRPRPVADPRP	0.295
RRIRYRPPRLPRPRPRPAHAPRP	0.154
RRIRKRPPRLPRPRPRPDRSPRP	-0.231
RRIRKRPPRLPRPRPRPKWQPRP	0.0343
RRIRWRPPRLPRPRPRPDDEPRP	0.606
RRIRYRPPRLPRPRPRPTRPPRP	0.472
RRIRLRPPRLPRPRPRPHVFPRP	-0.0592
RRIRLRPPRLPRPRPRPTYQPRP	-0.229
RRIRGRPPRLPRPRPRPYYMPRP	-0.238
RRIRCRPPRLPRPRPRPHHLPRP	-0.808
RRIRGRPPRLPRPRPRPDIPPRP	0.23
RRIRRRPPRLPRPRPRPMSIPRP	-0.465

Sequence	shrunken log2 fold change
RRIRFRPPRLPRPRPRPYWGPRP	-0.186
RRIRERPPRLPRPRPRPLMYPRP	-0.0754
RRIRNRPPRLPRPRPRPMNRPRP	-0.00285
RRIRPRPPRLPRPRPRPMHRPRP	0.0978
RRIRNRPPRLPRPRPRPIICPRP	-0.0922
RRIRLRPPRLPRPRPRPDSMPRP	-0.166
RRIRKRPPRLPRPRPRPMGKPRP	-0.0982
RRIRGRPPRLPRPRPRPYGRPRP	0.047
RRIRERPPRLPRPRPRPPAIPRP	-0.0287
RRIRSRPPRLPRPRPRPTLGPRP	0.378
RRIRDRPPRLPRPRPRPACHPRP	0.0454
RRIRNRPPRLPRPRPRPQYFPRP	-0.00973
RRIRERPPRLPRPRPRPQILPRP	-0.179
RRIRDRPPRLPRPRPRPASQPRP	0.0836
RRIRRRPPRLPRPRPRPTGPPRP	0.369
RRIRDRPPRLPRPRPRPMFRPRP	-0.114
RRIRWRPPRLPRPRPRPGMDPRP	0.317
RRIRDRPPRLPRPRPRPNPYPRP	-0.558
RRIRCRPPRLPRPRPRPRRCPRP	0.42
RRIRHRPPRLPRPRPRPIRHPRP	-0.0447
RRIRGRPPRLPRPRPRPYGKPRP	-0.124
RRIRERPPRLPRPRPRPYGFPRP	-0.382
RRIRKRPPRLPRPRPRPWSVPRP	-0.0212
RRIRWRPPRLPRPRPRPWSAPRP	0.228
RRIRQRPPRLPRPRPRPNLPPRP	0.0275
